The values that follow come from US20240100180A1 (SOTIO BIOTECH A S, published 2024).

To fix the notation:
B1: hCL1a-LC-G2-PNU (antibody, human IgG1, kappa)
heavy: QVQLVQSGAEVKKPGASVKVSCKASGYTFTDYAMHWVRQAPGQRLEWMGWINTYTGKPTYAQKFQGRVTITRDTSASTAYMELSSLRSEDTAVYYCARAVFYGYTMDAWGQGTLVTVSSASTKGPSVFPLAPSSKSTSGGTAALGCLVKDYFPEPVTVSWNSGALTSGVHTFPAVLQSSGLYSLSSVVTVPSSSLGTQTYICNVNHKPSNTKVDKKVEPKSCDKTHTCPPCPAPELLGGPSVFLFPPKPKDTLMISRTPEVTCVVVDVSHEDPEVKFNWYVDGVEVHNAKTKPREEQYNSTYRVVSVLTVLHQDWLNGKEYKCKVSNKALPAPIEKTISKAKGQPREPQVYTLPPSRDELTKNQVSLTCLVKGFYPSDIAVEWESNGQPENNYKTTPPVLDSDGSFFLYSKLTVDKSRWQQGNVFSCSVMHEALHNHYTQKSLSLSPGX
light: DIQMTQSPSSLSASVGDRVTITCRASEDIYSNLAWYQQKPGKAPKLLIFSVKRLQDGVPSRFSGSGSGTDFTLTISSLQPEDFATYYCLQGSNFPLTFGQGTKVEIKRTVAAPSVFIFPPSDEQLKSGTASVVCLLNNFYPREAKVQWKVDNALQSGNSQESVTEQDSKDSTYSLSSTLTLSKADYEKHKVYACEVTHQGLSSPVTKSFNRGECGGGGSLPQTGG
modifications: PNU-159682 linked through ethylenediamine to the C-terminal Gly of the GGGGSLPQTGG tag
B2: hCL1h-LC-G2-PNU (antibody, human IgG1, kappa)
heavy: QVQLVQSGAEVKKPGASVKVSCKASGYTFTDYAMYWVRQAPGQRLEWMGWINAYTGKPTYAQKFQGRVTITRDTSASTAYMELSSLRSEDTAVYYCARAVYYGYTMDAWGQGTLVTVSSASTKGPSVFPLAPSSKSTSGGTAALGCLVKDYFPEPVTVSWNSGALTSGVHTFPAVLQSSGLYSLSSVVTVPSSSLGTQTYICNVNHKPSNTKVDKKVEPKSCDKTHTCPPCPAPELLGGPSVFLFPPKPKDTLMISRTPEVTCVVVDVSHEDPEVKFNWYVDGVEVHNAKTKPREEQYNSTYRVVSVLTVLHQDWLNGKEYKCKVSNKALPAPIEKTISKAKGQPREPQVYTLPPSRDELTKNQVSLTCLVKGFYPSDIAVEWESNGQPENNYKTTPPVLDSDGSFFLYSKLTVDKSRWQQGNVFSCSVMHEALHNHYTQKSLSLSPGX
light: B1 light with F49Y
modifications: PNU-159682 linked through ethylenediamine to the C-terminal Gly of the GGGGSLPQTGG tag
B3: hCL1d-LC-G2-PNU (antibody, human IgG1, kappa)
heavy: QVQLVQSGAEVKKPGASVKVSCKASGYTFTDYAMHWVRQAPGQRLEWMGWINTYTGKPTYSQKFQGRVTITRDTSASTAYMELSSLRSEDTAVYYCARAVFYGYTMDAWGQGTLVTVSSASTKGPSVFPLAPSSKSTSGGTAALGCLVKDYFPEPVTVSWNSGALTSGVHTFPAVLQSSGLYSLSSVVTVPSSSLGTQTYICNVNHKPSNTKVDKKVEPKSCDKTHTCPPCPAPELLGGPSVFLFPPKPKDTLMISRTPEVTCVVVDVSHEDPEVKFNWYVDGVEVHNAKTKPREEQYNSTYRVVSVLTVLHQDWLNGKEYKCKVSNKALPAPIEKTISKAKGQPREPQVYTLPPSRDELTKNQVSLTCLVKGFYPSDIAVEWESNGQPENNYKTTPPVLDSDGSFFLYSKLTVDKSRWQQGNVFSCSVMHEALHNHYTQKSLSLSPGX
light: B1 light with A25T, L33F, F49Y, K52N, N93K
modifications: PNU-159682 linked through ethylenediamine to the C-terminal Gly of the GGGGSLPQTGG tag
B4: hCL1f-LC-G2-PNU (antibody, human IgG1, kappa)
heavy: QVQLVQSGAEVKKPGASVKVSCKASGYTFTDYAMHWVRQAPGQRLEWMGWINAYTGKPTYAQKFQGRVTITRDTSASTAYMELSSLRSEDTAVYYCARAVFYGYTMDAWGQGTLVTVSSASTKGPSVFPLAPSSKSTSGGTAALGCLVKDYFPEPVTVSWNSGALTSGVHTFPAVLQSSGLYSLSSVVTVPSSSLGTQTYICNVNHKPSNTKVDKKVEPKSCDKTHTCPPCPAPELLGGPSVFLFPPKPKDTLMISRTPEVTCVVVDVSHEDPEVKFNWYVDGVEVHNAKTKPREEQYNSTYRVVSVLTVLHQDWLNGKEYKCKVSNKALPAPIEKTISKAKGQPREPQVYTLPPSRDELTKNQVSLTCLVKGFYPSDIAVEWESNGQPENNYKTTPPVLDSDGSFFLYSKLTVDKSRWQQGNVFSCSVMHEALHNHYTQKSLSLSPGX
light: B1 light with F49Y
modifications: PNU-159682 linked through ethylenediamine to the C-terminal Gly of the GGGGSLPQTGG tag
B5: hCL1j-LC-G2-PNU (antibody, human IgG1, kappa)
heavy: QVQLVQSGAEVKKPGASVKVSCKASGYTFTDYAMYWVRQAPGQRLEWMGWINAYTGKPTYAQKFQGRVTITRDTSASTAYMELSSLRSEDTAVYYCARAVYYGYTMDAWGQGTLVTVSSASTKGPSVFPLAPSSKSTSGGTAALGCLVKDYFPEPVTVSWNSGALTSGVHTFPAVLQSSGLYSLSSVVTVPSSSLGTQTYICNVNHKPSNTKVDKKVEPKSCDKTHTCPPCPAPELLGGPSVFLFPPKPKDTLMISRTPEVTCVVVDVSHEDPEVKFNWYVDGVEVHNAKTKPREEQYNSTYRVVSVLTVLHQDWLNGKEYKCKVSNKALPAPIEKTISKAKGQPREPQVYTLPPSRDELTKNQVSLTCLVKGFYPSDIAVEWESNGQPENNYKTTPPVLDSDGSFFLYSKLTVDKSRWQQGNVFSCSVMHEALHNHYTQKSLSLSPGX
light: B1 light with A25T, S50A, V51I, N93K
modifications: PNU-159682 linked through ethylenediamine to the C-terminal Gly of the GGGGSLPQTGG tag
B6: hCL1e-LC-G2-PNU (antibody, human IgG1, kappa)
heavy: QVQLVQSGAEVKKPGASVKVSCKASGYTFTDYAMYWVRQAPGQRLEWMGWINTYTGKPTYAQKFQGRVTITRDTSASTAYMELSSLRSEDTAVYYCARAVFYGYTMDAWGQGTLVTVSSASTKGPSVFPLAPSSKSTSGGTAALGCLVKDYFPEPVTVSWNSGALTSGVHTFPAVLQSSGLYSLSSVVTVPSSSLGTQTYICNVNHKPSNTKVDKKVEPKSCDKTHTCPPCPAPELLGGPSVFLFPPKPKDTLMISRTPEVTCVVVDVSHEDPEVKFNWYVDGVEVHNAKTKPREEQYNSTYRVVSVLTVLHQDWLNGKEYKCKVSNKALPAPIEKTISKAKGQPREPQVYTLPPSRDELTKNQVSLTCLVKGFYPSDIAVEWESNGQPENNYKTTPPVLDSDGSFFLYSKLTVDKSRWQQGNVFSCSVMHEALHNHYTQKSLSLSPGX
light: B1 light
modifications: PNU-159682 linked through ethylenediamine to the C-terminal Gly of the GGGGSLPQTGG tag
B7: hCL1g-LC-G2-PNU (antibody, human IgG1, kappa)
heavy: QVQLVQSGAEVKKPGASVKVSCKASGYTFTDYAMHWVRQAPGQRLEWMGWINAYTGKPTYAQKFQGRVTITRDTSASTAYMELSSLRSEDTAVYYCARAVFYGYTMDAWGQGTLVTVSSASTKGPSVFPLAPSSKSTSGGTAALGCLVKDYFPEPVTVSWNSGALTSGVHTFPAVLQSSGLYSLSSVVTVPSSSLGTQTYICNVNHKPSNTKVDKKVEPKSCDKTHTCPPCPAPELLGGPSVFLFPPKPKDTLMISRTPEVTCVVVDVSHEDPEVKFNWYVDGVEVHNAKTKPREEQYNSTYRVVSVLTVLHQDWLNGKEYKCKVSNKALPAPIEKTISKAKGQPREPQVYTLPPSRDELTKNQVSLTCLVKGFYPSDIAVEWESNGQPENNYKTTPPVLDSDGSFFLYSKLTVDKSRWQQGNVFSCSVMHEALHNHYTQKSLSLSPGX
light: B1 light with A25T, L33F, F49Y, K52N, N93K
modifications: PNU-159682 linked through ethylenediamine to the C-terminal Gly of the GGGGSLPQTGG tag
B8: hCL1i-LC-G2-PNU (antibody, human IgG1, kappa)
heavy: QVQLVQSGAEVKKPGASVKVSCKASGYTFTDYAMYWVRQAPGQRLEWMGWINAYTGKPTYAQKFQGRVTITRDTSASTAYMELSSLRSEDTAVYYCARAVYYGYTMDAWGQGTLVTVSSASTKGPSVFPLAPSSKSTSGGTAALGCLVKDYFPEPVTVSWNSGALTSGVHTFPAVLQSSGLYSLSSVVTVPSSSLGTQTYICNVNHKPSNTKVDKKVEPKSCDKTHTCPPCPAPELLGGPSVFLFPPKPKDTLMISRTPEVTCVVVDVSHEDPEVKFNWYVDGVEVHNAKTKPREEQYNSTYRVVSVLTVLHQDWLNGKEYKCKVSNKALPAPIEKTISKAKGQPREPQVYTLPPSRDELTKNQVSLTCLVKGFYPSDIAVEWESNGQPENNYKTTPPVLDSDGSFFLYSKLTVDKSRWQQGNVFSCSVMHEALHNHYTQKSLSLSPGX
light: B1 light
modifications: PNU-159682 linked through ethylenediamine to the C-terminal Gly of the GGGGSLPQTGG tag
B9: hCL1c-LC-G2-PNU (antibody, human IgG1, kappa)
heavy: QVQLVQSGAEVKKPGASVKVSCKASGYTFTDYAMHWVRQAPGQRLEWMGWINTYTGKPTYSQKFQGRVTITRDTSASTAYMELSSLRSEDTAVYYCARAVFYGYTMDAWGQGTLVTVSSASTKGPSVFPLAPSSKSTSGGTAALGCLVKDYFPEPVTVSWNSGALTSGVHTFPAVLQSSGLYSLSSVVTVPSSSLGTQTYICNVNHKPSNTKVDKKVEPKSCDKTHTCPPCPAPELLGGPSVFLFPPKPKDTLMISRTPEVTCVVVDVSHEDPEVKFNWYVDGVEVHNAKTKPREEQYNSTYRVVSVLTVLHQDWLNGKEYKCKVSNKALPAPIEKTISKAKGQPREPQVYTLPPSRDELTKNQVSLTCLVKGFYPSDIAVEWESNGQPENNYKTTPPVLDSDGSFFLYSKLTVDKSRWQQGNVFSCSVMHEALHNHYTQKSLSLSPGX
light: B1 light with A25T, S50A, V51I, N93K
modifications: PNU-159682 linked through ethylenediamine to the C-terminal Gly of the GGGGSLPQTGG tag
B10: hCL1b-LC-G2-PNU (antibody, human IgG1, kappa)
heavy: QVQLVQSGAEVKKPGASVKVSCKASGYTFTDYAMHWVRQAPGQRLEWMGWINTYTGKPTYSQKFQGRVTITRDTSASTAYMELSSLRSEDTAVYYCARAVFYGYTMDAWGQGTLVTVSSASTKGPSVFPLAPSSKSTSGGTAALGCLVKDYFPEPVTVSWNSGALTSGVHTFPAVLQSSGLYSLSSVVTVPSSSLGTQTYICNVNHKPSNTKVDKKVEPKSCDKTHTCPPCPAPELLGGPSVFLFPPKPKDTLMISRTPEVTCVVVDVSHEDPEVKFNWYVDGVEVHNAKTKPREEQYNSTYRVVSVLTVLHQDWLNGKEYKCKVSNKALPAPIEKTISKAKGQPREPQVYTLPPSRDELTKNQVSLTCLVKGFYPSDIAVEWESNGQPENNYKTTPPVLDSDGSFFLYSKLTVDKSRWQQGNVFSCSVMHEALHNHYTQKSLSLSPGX
light: B1 light
modifications: PNU-159682 linked through ethylenediamine to the C-terminal Gly of the GGGGSLPQTGG tag
B11: cCl1-1 (antibody, V domains shown)
VH: QIQLVQSGPELKKPGESVKISCKASGYTFTDYAMHWVKQAPGKGLKWMGWINTYTGKPTYADDFKGRFVFSLEASASTANLQISNLKNEDTATYFCARAVFYGYTMDAWGQGTSVTVSS
VL: DIQMTQSPASLSASLGETISIACRASEDIYSNLAWYQQKSGKSPQLLIFSVKRLQDGVPSRFSGSGSGTQYSLKISGMQPEDEGDYFCLQGSNFPLTFGSGTKLEIK
notes: Chimeric antibody from rat hybridoma, detected with anti-human IgG
B12: cCl1-2 (antibody, V domains shown)
VH: B11 VH with A24T, A40G, L45M, T53A, F70L, F101Y, T116I
VL: B11 VL with A22E, A25T, L33F, Y36F, F49Y, K52N, N93K
notes: as for B11
B13: cCl1-3 (antibody, V domains shown)
VH: B11 VH with H35Y, A40V, K46R
VL: B11 VL with A25T, S50A, V51I, N93K
notes: as for B11

Changes are numbered by the printed parent chain.

One test has as its target human CLDN18.2 (Claudin 18.2) expressed on cells (human). As to the kind of experiment: cell-based or functional assay.
B1: the “EC50 of in-vitro cytotoxicity, A549-CLDN18.2 cells (head of c2)” value (“EC50 of in-vitro cytotoxicity” for short) turned out to be 4.8 ng/mL.

With B2, the “EC50 of in-vitro cytotoxicity” value amounted to 3.3 ng/mL.

On to B3, for which the “EC50 of in-vitro cytotoxicity” value was determined as 11.6 ng/mL.

In the case of B4, the “EC50 of in-vitro cytotoxicity” value is 14 ng/mL.

In the case of B5, the “EC50 of in-vitro cytotoxicity” value is 5.3 ng/mL.

Take B6: the “EC50 of in-vitro cytotoxicity” value turned out to be 4.3 ng/mL.

For B7, the “EC50 of in-vitro cytotoxicity” value worked out at 70.7 ng/mL.

Turning to B8, the “EC50 of in-vitro cytotoxicity” value amounted to 3.8 ng/mL.

In the case of B9, the “EC50 of in-vitro cytotoxicity” value is 30 ng/mL.

With B10, the “EC50 of in-vitro cytotoxicity” value worked out at 6.4 ng/mL.

The target of a further test is T1, human CLDN18.1 (Claudin 18.1) expressed on cells (human, UniProt P56856 1-261).
T1 construct: whole, on cells; Isoform 1 (lung isoform) of CLDN18; also called huCLDN18.1; hCLDN18.1
T1 sequence (P56856 whole entry, canonical isoform): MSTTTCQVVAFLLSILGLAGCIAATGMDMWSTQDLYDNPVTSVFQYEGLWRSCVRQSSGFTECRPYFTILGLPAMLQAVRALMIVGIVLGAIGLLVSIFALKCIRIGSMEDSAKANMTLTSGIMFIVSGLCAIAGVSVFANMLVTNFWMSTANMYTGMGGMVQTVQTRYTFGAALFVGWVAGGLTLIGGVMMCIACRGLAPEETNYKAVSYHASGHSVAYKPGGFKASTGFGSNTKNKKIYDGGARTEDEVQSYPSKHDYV
As to the kind of experiment: flow cytometry, L11 cells overexpressing huCLDN18.1 (FIG. 4). (Flow cytometry measures light scatter and fluorescence of single cells or particles in a stream.)
Description: The cells were stained on ice for 30 min using the antibodies at 2 μg/ml and, upon washing in PBS/2% FCS, stained with anti-human IgG (Fc gamma-specific) PE goat antibody (eBioscience) as secondary antibody for 30 min on ice.
In the case of B11, the binding result is listed as “no binding (tested: 2 µg/ml)”.

As for B12, the binding result is “no binding (tested: 2 µg/ml)”.

On to B13, for which the binding result is “no binding (tested: 2 µg/ml)”.

The next test deals with T2, human CLDN18.2 (Claudin 18.2) expressed on cells (human).
T2 construct: also called huCLDN18.2; hCLDN18.2
As to the kind of experiment: % positive tumor cells divided by % positive healthy stomach cells, flow cytometry, average.
Description: (§1) Two Balb/c mice were implanted subcutaneously with 1×10⁶ A549 cells expressing CLDN18.2 in 100 μl of 50% Matrigel and tumors growth was monitored over a few weeks until the tumor reached the desired size between 150-450 mm³. Healthy stomach tissue and tumor tissue was collected for FC analysis. The collected tissues were cut into small pieces and digested with the Miltenyi tumor dissociation kit (MACS Miltenyi Biotec, Germany). Tissue pieces were incubated with dissociation buffer (prepared according to the manufacturer instruction) in 6 well plates for 30 min in 37° C. under permanent gentle rocking motion. Samples were resuspended and strained through a 70 μm cell strainer (Corning, USA) followed by a wash with 20 ml FC buffer (PBS+2% FBS). Cell suspensions were centrifuged (5 min at 400 g for 4° C.) and the supernatants were discarded. If needed, cell suspensions were passed through a strainer and centrifuged repeatedly and pellets resuspended in 5 ml of red blood cell lysis buffer (Biolegend, USA), incubated on ice for 4 min. After incubation, 25 ml of PBS was added, and the suspensions were centrifuged again (5 min at 400 g for 4° C.). Pellets were resuspended in FC buffer (0.5-3 ml based on pellets). Equal number of cells were transferred into 96 well plates and further processed for FC analysis. […]
As to B11, the Ratio tumor/stomach was 74.3.

The target of a further test is T2, human CLDN18.2 (Claudin 18.2) expressed …. Kind of test: % positive tumor cells divided by % positive healthy stomach cells, flow cytometry, mouse 1.
Description: as §1
Turning to B11, the Ratio tumor/stomach is 92.5.

The next test shares this target. As to the kind of experiment: % positive tumor cells divided by % positive healthy stomach cells, flow cytometry, mouse 2.
Description: as §1
In the case of B11, the Ratio tumor/stomach was 50.
